Results on one molecule are retold here after article PMC4938799, “LD Motif Recognition by Talin: Structure of the Talin-DLC1 Complex” (Structure(London, England:1993), 2016).

For the assay, the system named is endogenous RIAM. The assay can be described thus: GST pull-down of endogenous RIAM in A549 cells. It is filed as cell-based, human. The following applies: A549 cell extracts, anti-RIAM immunoblot. From the text:
However, as talin R8 interacts with RIAM ([Goult et al., 2013b]) and paxillin (shown here) in addition to DLC1, we used several approaches to evaluate whether binding of talin R8 to endogenous RIAM or paxillin might have contributed to the observed results. For RIAM, the level of expression in the cell lines used here varied from very low to undetectable. To detect RIAM protein in any of the cell extracts, we had to use an anti-RIAM immunoprecipitation step followed by anti-RIAM immunoblotting. Using these conditions, endogenous RIAM was detected in A549 and H358 cells, but not in 293T cells (Figure S5A).
Figure S5, related to figure 6. […]
form a detectable complex with GST-talin R8.
(A) The expression of endogenous RIAM in cell lines. Cell extracts were subjected to immunoprecipitation followed by immunoblotting with anti-RIAM antibody.
(B) A complex between GST-talin R8 and endogenous RIAM is undetectable in A549 cells.
A549 cells were co-transfected with GFP-DLC1 and the GST constructs indicated. Cell extracts were subject to a glutathione bead pull down assay followed by immunoblotting with anti-GST and anti-RIAM antibodies on the same membrane (left). No complex between GST-talin R8 and RIAM could be detected. Under the same conditions, wild-type GST-R8 pulled-down the co-transfected GFP-DLC1; the immunoblot with anti-GST and anti-DLC1 on the same membrane is shown (right). […]

B1: GST-R8: GST-tagged talin R8, amino acids 1,453–1,580 (protein)
chain: NSQAGQQGLVEPTQFARANQAIQMACQSLGEPGCTQAQVLSAATIVAKHTSALCNSCRLASARTANPTAKRQFVQSAKEVANSTANLVKTIKALDGDFTEENRAQCRAATAPLLEAVDNLSAFASNPE
modifications: left off: GST, end not stated, kept
As to B1, the “complex with endogenous RIAM” value is reported as “did not detect a GST-R8 complex”. Moreover, the “complex with endogenous RIAM” value (listed as GST-talin R8) is listed as “undetectable”.
